Measurements as given in PMC6018003, “Quantifying the Interaction between Copper-Zinc Superoxide Dismutase (Sod1) and its Copper Chaperone (Ccs1)” (Journal of proteomics & bioinformatics, 2018).
Each block holds one binder with its values, some of them ahead of it.

Target: T1, H46R/H48Q/C146S Sod1 labeled with Alexa-546 at C57 (yeast, Alexa-546 C5-maleimide on C57)
T1 construct: two residue (Gly-His) extension left on the N-terminus after TEV cleavage; The vector with His tag and TEV site is stated for Ccs1; the purification with tag removal is told of both proteins; also called immature Sod1; E, E-Sod1^SH; source: E. coli BL21 (DE3) pLysS, purified (HisTrap HP Ni2+ column, TEV cleavage; Superdex 200 after labeling); not shown: His8, N-terminal, cleaved
T1 sequence (P00445 2-154 with H46R H48Q C146S, looked up): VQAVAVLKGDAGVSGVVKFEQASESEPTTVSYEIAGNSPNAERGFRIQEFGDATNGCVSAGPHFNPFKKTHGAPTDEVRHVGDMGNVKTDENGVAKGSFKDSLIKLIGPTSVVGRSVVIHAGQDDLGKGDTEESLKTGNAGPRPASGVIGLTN
Test: other fluorescence titration; microplate, quenching of Alexa-546-labeled Sod1 on titration with Ccs1; Sod1 metal deficient and disulfide reduced (E, E-Sod1^SH); 20 mM Tris pH 7.5, 150 mM NaCl, 1 mM TCEP, 0.01% octyl glucoside and CHAPS
Settings: both partners purified

- Kd: 552 ± 105 nM
B1: Ccs1 lacking D3 (domain or fragment)
chain: MTTNDTYEATYAIPMHCENCVNDIKACLKNVPGINSLNFDIEQQIMSVESSVAPSTIINTLRNCGKDAIIRGAGKPNSSAVAILETFQKYTIDQKKDTAVRGLARIVQVGENKTLFDITVNGVPEAGNYHASIHEKGDVSKGVESTGKVWHKFDEPIECFNESDLGKNLYSGKTFLSAPLPTWQLIGRSFVISKSLNHPENEPSSVKDYSFLGVIARSAGVW

- Kd: 217 ± 38 nM
B2: Ccs1 lacking D1 (domain or fragment)
chain: IRGAGKPNSSAVAILETFQKYTIDQKKDTAVRGLARIVQVGENKTLFDITVNGVPEAGNYHASIHEKGDVSKGVESTGKVWHKFDEPIECFNESDLGKNLYSGKTFLSAPLPTWQLIGRSFVISKSLNHPENEPSSVKDYSFLGVIARSAGVWENNKQVCACTGKTVWEERKDALANNIK
